Reference: the nanobody polyreactivity screen of Harvey et al. (2022)

test: yeast display, Sf9 membrane polyspecificity reagent, FACS + sequencing; frameworks hold sequencing errors
How it was run: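 Galactose-induced (36–48 hours) yeast carrying a synthetic nanobody display library were exposed to 10% biotinylated, detergent-solubilized Sf9 membrane reagent at 4 °C for 1 hour. FACS followed streptavidin microbead enrichment, using low and high (top ~1%) gates for expression (anti-HA) and reagent binding (streptavidin). Colony PCR, MiSeq 2 × 250 sequencing and CDR-length filtering followed. Labels for polyreactivity reflect the gate of origin.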

Row | Sequence | polyreactivity (PSR sort gate)
1 | QVQLVESGGGLVQAGGSLRLSCAASGLIFRPYAMGWYRQAPGKERELVAAISSSGGSTYYADSVKGRFTISRDNAKNTVYLQMNSLKPEDTAVYYCATYFARGYNSWGQGTQVTVSS | high polyreactivity
2 | QVQLVESGGGLVQAGGSLRLICAASGFIFIGYAMGWYRQARGKERELVAAISWRGGTYYADSVKGRFTISRDNAKNSVYLQMNSLKPEDTAVYYCAARTRNAVRSGSGKYDYCGQGTQVTVSS | low polyreactivity
3 | QVQLVESGGGLVQAGGSLRLSCAASGITFQNYAMGWYRQAPGKERELVAAITRSGGRTYYADSVKGRFTISRDNAMNTVYLQMNSLKPEDTAVYYCAVYGIGRPYWYDYWGQGTQVTVSS | high polyreactivity
4 | QVQLVESGGGLVQAGGSLRLSCAASGRISSYYVMGWYRQAPGKERELVAAITGGDSTNYADSVKGRFTISRDNAKNTVYLQMNSLKPEDTAVYYCAAKAYSYSRWGYYGYYYWGQGSQVTVSS | high polyreactivity
5 | QVQLVESGGGLVQAGGSLRLSSAASGRIFRINAMGWYRQAPGKERELVADITSGGSTNYADSVKGRFTISRDNAKNTVYLQMNSLKPEDTAVYYCAAAYVTYRTRLDYWGQGTQVTVSS | low polyreactivity
6 | QVQLVESGGGLVQAGGSLRLSCAASGRIIYTYALGWYRQAPGKERELVAAISWSGGSTYYADSVKGRFTISRDNAKNTVYLQMNSLKREDTAVYYCNAAYYGYENLSKRGYWGQGTQVTVSS | high polyreactivity
7 | QVQLVESGGGLVQAGGSLRLSCASSGRIFSFYAMGWYRQAPGKERELVAAISWNSGRTYYADSVKGRFTISRDNAKNTVYLQMNSLKPEDTAVYYCAAPFSAYYGDDYWGQGTQVTVSS | low polyreactivity
8 | QVQLVESGGGLVQAGGRLRLSCAASGSNFYENAMVWYRQAPGKERELVADITNSGGSTYYADSVKGRFTISRDNAKNTVYLQMNSLIPEDTAVFYFATDVGYFYTVVGGYDYWGQGTQVTVSS | low polyreactivity
9 | QGQLVESGGGLVQAGGILRLSCAASGIIFCRYAMGWYRQAPGKERELVATITWRGGSTYYADSVKARFTNSRDNAKNTVYLQMNSLKPEDTAVYSSAADTRPSRSFRARDYWGQGTQVTVSS | low polyreactivity
10 | QVQLVESGGGLVQAGGSLRLSCAASGLTFSAYTMGWYRQAPGKERELVAAIDRSGSTYYADSVKGRFTISRDNAKNTVYLQMNSLKPEDTAVYYCAADAVRKDLFDYWGQGTQVTVSS | low polyreactivity
11 | QVQLVESGGGLVQEGGSLRLSCAASGFTFRYYTMGWYRQATGKERELVATITWSGGGTYYADSVKGRFTISRDNAKNTVYLQRISLKPVDSAVYYCTAGLFYKAQYGYWGKGTQVTVSS | high polyreactivity
12 | QVQLVESGGGLVQAGGSLRLSCADSGSTFWFYERGWYSQAPGKVRELVAVISNSGSTYYADSVKGLFTISRDNAKNTVYLQMNSLKPEDTAVYYCNKDGGGDSYWYDYWGQGTQVTVSS | low polyreactivity
13 | QVQIVESGRGLVQAGGSLRLSCAASGRIFYNDLMGWYRQAPGKERELVASISTGGTTYYSDSVKGRFTISRDNAKNTVYLQMNSLKPEDTAVYYCNAGLFYAPPFYTMDYWGQGTQVTVSS | low polyreactivity
14 | PVQLVESGGGLGQAGGSLRLSCAASGRIFYLYAMGWYRQAPGKERELVATIDSSGDSTFYADSVKGRFTISRDNAKNTVYLQMNSLKPEDTAVYNCAADEVSSYDYGYKGRYDYWGQGTQVTVSS | low polyreactivity
15 | QVQLVESGGGLVQAGGSLRLSCAASGSIFYSYAKGSYLQAPGKERELVADITFSGVSTYYADSVKGRFTISRDNAKNTVYLQMKSLKTEDTAVYYGAADGVSRWYLYRWYDYDYWGQGTQVTVSS | low polyreactivity
16 | QVQIVESCGGLVQAGGSHRLSCAASGSTFVPNAMGWYRQAPGKEREFVAAISRIGGTYYADSVKGRFTISRDNEKNTVYLLMNCLKPEDNAVYYCAAEPSSVGYHVEYDYWGQGTQVTVSS | low polyreactivity
17 | QVQLVESGGGLVQAGGSLRLSCAASGLTFVVYAMGWYRQAPGKERELVAAISSTGNTYYADSEKGRFTISRDNAKNTVYLQMNSLKPEDTAVYYCAAERSFYWYHFDYWGQGTQVTVSS | high polyreactivity
18 | QVQLVESGGGLVQAGGSLRLSCAASGSTFLVNAMGLYRQAPGKEREFVAAITGNAGSTYYADSVKGRFTISRDNAKITVYLQMNSLIPEDTAVYYCARTRRTPRGYLDFSLREYDYWGQGTQVTVSS | low polyreactivity
19 | QVQLVESGGGLVQAGGSLRLSCAASGRTFVTNAMGWYRQAPGKERELVAAISGTGGSTYYADSVKGRFTISRDNAKNTVYLQMNSLKPEDTAVYYCNKDYHVRYYYWGQGTLVTVSS | low polyreactivity
20 | QVQLVESGGGLVHAGGSLRLSCAASGSIFGANVMGWYRQAPGKERELVAAITRSGTRTYYADSVKGRFTISRDNAKNTVYLQMNSLKPEDTAVYYCAAVLRLSTLTTDFGYWGQGTQVTVSS | high polyreactivity
21 | QVQLVESGGGLVQAGGSLRLSCAASGRISASYAMGWYRQAPGKEREWVAAITGSGGSTYYADSVKGRFTISRDNAQNTVYLQMNSLKPEDTGVYYCAAEPVLSVFFEFDSWGQGTQVTVSS | low polyreactivity
22 | QVQLVESGGGLVQAGGSLRLSCAATGFTFIPYAMGWYRQAPGKERELVAGITIGGRTNNADSVKGRFTISRDNAKNTVYLQMNSLKPEDTAVYYCNAGVYLYVTSKYWYYYWGQGTQVTVSS | high polyreactivity

Row | Sequence | polyreactivity (PSR sort gate)
23 | QVQLVESGGGLVQAGGSLRLSCAASGIIFGRYDMGWYRQAPGKERELVAAITWSGGTTYYADSVKGRFTISRDNAKNTVYLQMNSLKPADTAVYYCNAVGRYSEDGYWGQGTQVTVSS | high polyreactivity
24 | QVQLVESGGGLVQAGGSLRLSCAASGRTIRWNAMGWYRQAPGKERELVAAITSRGGSTYYADSVKGRFTISRDNAKNTVYLQMISLKPEDTAVSYCAKQPKPPPVTGYDYSGQGTQVTVSS | high polyreactivity
25 | QVQLVESGGGLVQAGGSLRLSCAASGSIFAHYAMGWYRQAPGKERELVARISWSGGSTYYADSVKGRFTISRDNEKNTVYLQKNSMKPEDTAVYYCARAGRSWDTLYKYYLEHDYWGQGTQVTVSS | low polyreactivity
26 | QVQLVESGGGLVQAGGSLRLSCAASGFTFDPYAMGWYRQAPGKERELVAAISFSGGSTSYADSVKGRFTISRDNAKNTVYLHMNSLKLEDTAVYYCNAEYDWWSYWYDYWGQGTQVTVSS | high polyreactivity
27 | QVHLVETGGGLVQEGGSLRLSCAASGSIFYYNAMGWYRQATGKETELVAAITSSGGSTYADSVKGRFTISRDNAKNTVYLQMNSLKPEDTAVYYCATVAHGLWSGSGYIYAYDYWGQGTQVTVSS | low polyreactivity
28 | QVQLVESGGGLVQAGGSLRLSCAASGSIFIVNAMGWYRQAPGKERELVAAITWSGGNTYYADSVKGRFTISRDNAKNTVYLQMNSLKPEDTAVYYCNSYWRGAFDYWGQGTQVTVSS | high polyreactivity
29 | QVQLVESGGGLVQAGGSLRLRCAASGYTFPSNAKGWYRQAPGKERELVAPISSGGRTNYADSVKGRFTISRDNAKNTVYLLMKSLKPEDTAVYYSNADGGPGYPRAYDYWGQVTQVTVSS | low polyreactivity
30 | QVQLVESGGGLVQAGGILRLSCAASGFTIYYYAIGWYRQAPGKERELVASITSGGSTYYADSVKGRFTISRDNAKNSVYLQMNSLKPEDTAVYYCAKTRFHYKEGDYWGQGTQVTVSS | low polyreactivity
31 | QVQLVESGGGLVQAGGSLRLSCAASGSTFYGYAMGWYRQAPGKERELVAAIRRIGGTTYADSVKGRFTISRDNAKNTVYLQMNSLKPVDTAVYYCAAYGFSYRYRYYYWGQGTQVTVSS | high polyreactivity
32 | QVQLVESGVGLVNAGGSLRLSCAASGYIFSPNVMGWYRQAPGKERELVAAITRGGGTYYADSVKGRFTISRDNAKNTVYLHLNSLKPEDTAVYYCNEDYTLSVYGTTYCYNYWGQGTQVTVSS | high polyreactivity
33 | QVQLVESGGGLVQAGGSLRLSCAASGSIDRFYAMGWYRQAPRKERDLVAFITSTGRTYYADSVKGRFTISRDNAKNTVYLQMNSLKPEDTAVYYCAAGYPKRVAYLWFSQYDYWGKGTQVTVSS | low polyreactivity
34 | QVQLVESGGGLVQAGGSLRLSCAASGRTFTSNAMGWYRQAPGKERELVAAITRGGSTYYADSVKGRFTISRDNAKNTVYLQMNSLKPEDTAVYYCNAGIYFRRKRYDYWGQGTQVTVSS | high polyreactivity
35 | QVQLVESGGGLVQAGGSLRLSCAASGFTFRYYAMGWYRQAPGKERELVAAISWSGGRTYYADSVKGRFTISRDNAKNTVYLQMNSLKPEDTAVYYCAADGYPYFYGDFDYWGQGTQVTVSS | high polyreactivity
36 | QVQLVESGGGLVQAGGSLRLSCAASGRTFNFYPMGWYRPAPGKERELVAAITVRGGSTYYSDSVKGRFTISRYNAKNTVYLQMNSLKPEDTAVYYCAADPYPYYGAYDYWGQGTQVTVSS | high polyreactivity
37 | QVQLVESGGGLVQAGGSLRLSCAASGSTFGWNAMGWYRQAPGKERDLVAAITGGGSTYYADSVKGRFTISRDNAKNTVYLQMNSLKPEDSAVYYCEGDYWGQGTQVTVSS | low polyreactivity
38 | QVQLVESGAGLVQAGASLRLSCAASGRIFSRYVMGWYRQAPGKEREFVASITWSGSSTYYADSVKGRFTLSRDNAKNTVYVQMNSLKPEDTAVYYCAALGLLSPSPWGTHIYEYDSWGQGTQVTVSS | low polyreactivity
39 | QVQLVESGGGLVQAGGSLRLSCAASGIIFRRYAMGWYRQAPGKEREFVAAIRYTGGGTYYADSVKGRFTISRDNAKNTVYFQMNSLKPEDTAVYYCAASPWSRGSRWRPFDYWGQGTQVTVSS | high polyreactivity
40 | QVQLVESGGGLVQAGGSLRLSCAASGRTFRSYAMGWYRQAPGKERELVAAIRRGGSTNYADSVKGRFTISRDNAKNTVYLQMNSLKPEDTAVYYCNARQTVRGPTDGRIAVWFDYWGQGTQVTVSS | high polyreactivity
41 | QVQLVESGGGLVQAGGSLRLSCAASGIIFKRYTMGWYRQAPGKERELVAAITNRGGTYYADSVKGRFTISRDNAKNTVYLQMNSLKPEDTAVYYCAARYYWIDFKFGGPRDYWGQGTQVTVSS | high polyreactivity
42 | QVQLVESGGGLVQAGGSLRLSCAASGRTFRAYTMGWYRQAPGKERELVAAISTPGGSTYYADSVKGRFTISRDNAKNTVYLQMNSLKPEDTAVYYCAADRYYWGQGTQVTVSS | low polyreactivity
43 | QVQLVASGGGLVQAGGSLRLSCAASGSIFARYALGWYSQAPGKEREWVAALRWSGGRTYYADSVKGRFTISRDNAKNTVYLQMNSLKPEDTAVDYCNAVIHRLGKTYGTNRVDYWGQGTQVTVSS | high polyreactivity
